The results in this text go back to patent publication US20250282879A1 (CILAG GMBH INTERNATIONAL, published 2025).

Experiment [1] concerns the target T1, recombinant cynomolgus monkey IL-31 (ECD with His Tag, Sino Biological) (cynomolgus monkey).
T1 construct: manufactured on demand by Sino Biological; also called cynomolgus IL-31-His; cyno IL-31
The experiment is described as follows: SPR, Morrison captured on immobilized human IL-4R-Fc, IL-31 analyte, single-cycle. The procedure: (§1) Binding kinetics (including affinity) of the bispecific Morrison-H (PRO2198, PRO2199) and Morrison-L (PRO2206, PRO2207) molecules to recombinant human IL-31 protein (Peprotech) were determined by SPR analysis on a T200 device (Biacore, Cytiva). In this SPR experiment, Morrison antibodies were injected over a carboxylmethylated dextran surface (CM5 sensorchip; Biacore, Cytiva) immobilized with human recombinant IL-4R protein (ECD with Fc Tag, R&D Systems) and a titration series of human IL-31 was injected as analyte. […] The calculation of the kinetics and the apparent dissociation equilibrium constant (KD) as well as the measurement for the quality of curve fitting were done as described above for IL-4R. The binding level was calculated as the maximum stability binding achieved normalized to the theoretical Rmax. Cross-reactivity to cynomolgus monkey IL-31 was measured using the same setup as for the analysis of human IL-31 affinities, with the difference that recombinant cynomolgus monkey IL-31 (ECD with His Tag, Sino Biological) protein was used as analytes instead of human IL-31.
(§2) After having shown a stable capture of Morrison antibodies via recombinant human IL-4R protein, IL-31 was injected as analyte and the kinetics of the binding of IL-31 to captured Morrison molecules were calculated.

Experiment [2] has as its target T2, recombinant human IL-31 protein (Peprotech) (human, UniProt Q6EBC2 24-164).
T2 construct: also called hIL-31
T2 sequence (looked up): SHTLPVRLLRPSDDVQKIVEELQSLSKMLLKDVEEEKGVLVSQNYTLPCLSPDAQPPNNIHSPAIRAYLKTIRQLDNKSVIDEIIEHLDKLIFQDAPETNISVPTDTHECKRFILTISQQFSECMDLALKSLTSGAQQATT
The experiment is described as above. The procedure: as §1, §2

Experiment [3] deals with T3, recombinant human IL-4R protein (ECD with His Tag, Sino Biological) (human, UniProt P24394 26-232).
T3 construct: extracellular domain; bought; also called human IL-4R ECD; not shown: His Tag
Put plainly: SPR, Morrison captured via anti-human IgG-Fc, IL-4R ECD-His analyte. As for the experimental part:
(§3) Binding kinetics (including affinity) of the bispecific Morrison-H (PRO2198, PRO2199) and Morrison-L (PRO2206, PRO2207) molecules to recombinant human IL-4R protein (ECD with His Tag, Sino Biological) were determined by SPR analysis on a T200 device (Biacore, Cytiva). In this SPR experiment, Morrison molecules were captured via an anti-human IgG-Fc antibody (Human Antibody Capture Kit; Biacore, Cytiva) covalently immobilized to a carboxylmethylated dextran surface (CM5 sensorchip; Biacore, Cytiva) and a titration series of human IL-4R ECD was injected as analyte. After each analyte injection cycle, the sensor chip was regenerated (MgCl₂), and new Morrison antibody was subsequently re-captured. […] The apparent dissociation (kd) and association (kₐ) rate constants and the apparent dissociation equilibrium constant (KD) were calculated with the Biacore analysis software (Biacore Evaluation software Version 3.2, Cytiva) using one-to-one Langmuir binding model and quality of the fits was monitored based on Chi2 and U-value, which are measures for the quality of the curve fitting. The binding level was calculated as the maximum stability binding achieved normalized to the theoretical Rmax. Cross-reactivity to cynomolgus monkey IL-4R was measured using the same setup as for the analysis of human IL-4R kinetics, with the difference that recombinant cynomolgus monkey IL-4R (ECD with His-tag, Acro Biosystems) protein was used as analyte instead of human IL-4R.

Experiment [4] has as its target T4, recombinant cynomolgus monkey IL-4R (ECD with His-tag, Acro Biosystems) (cynomolgus monkey, UniProt A0A2K5V556 26-232).
T4 construct: bought; also called cynomolgus IL-4R
Described as above. The procedure:
as §3

In experiment [5] the target is T2, recombinant human IL-31 protein …. Put plainly: cell-based or functional assay.
Experiment [6] addresses T5, human IL-4R on cells (HEK-Blue IL-4/IL-13 cells, human PBMC, human whole blood) (human, UniProt P24394 26-825). Put plainly: cell-based or functional assay.
In experiment [7] the target is T5, human IL-4R on cells (HEK-Blue …). Put plainly: cell-based or functional assay. The source holds these as a separate data set.
In experiment [8] the target is T6, cynomolgus IL-4R on transfected HEK293T cells (cynomolgus monkey, UniProt A0A2K5V580 33-832).
T6 construct: whole, on cells; also called cynomolgus IL-4R-expressing HEK293T cells; not shown: V5 Tag fused to the N-terminus of the expression construct
T6 sequence (A0A2K5V580 entry or part of it): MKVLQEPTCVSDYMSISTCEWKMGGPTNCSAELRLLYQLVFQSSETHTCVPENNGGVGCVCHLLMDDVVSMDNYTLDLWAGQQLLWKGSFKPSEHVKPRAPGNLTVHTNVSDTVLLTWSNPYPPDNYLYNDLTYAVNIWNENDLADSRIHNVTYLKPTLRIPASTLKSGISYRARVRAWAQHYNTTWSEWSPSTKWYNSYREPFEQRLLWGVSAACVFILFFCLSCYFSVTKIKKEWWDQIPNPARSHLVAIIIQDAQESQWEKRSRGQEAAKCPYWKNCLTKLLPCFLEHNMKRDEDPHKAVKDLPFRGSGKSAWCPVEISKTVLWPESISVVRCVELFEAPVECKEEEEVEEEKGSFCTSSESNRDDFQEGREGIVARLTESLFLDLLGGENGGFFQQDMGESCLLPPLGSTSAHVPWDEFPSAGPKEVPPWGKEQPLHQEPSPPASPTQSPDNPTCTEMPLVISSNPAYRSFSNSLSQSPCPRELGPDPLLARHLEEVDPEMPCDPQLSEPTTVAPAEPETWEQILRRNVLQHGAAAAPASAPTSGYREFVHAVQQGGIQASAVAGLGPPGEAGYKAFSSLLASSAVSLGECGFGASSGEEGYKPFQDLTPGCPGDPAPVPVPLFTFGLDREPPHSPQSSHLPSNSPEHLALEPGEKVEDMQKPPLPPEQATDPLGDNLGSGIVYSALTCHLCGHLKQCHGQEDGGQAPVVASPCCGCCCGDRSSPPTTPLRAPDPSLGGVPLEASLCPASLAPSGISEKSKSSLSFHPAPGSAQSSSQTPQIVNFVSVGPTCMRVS
The experiment is described as follows: flow cytometry, transfected HEK293T cells. The source says:
(§4) To test binding of the Morrison-H and Morrison-L antibodies PRO2198, PRO2199, PRO2206 and PRO2207 to human or cynomolgus IL-4R-expressing HEK293T cells, HEK293T cells were transfected with human and cynomolgus IL-4R plasmids and mock plasmid using Lipofectamine3000. Binding of an antibody targeting V5 Tag, which is fused to the N-terminus of human and cynomolgus IL-4R expression constructs, would confirm successful expression of both targets and was thus used as a positive control for plasma membranous binding. The Morrison-H molecule PRO2077 was used as negative control for cynomolgus IL-4R binding since this molecule had not shown any cross-reactivity to cynomolgus IL-4R (see section 5.3.).
(§5) 50,000 transfected HEK293T cells per well were seeded in a 96-well plate. 5-fold serial dilutions of the Morrison-H and Morrison-L antibodies PRO2198, PRO2199, PRO2206 and PRO2207 and of the control molecule PRO2077, which is not cross-reactive to cynomolgus IL-4R, were added at concentrations ranging from 5,000 to 0.32 ng/ml to the plates and incubated for 60 min at 4° C. on a shaker. Supernatants were removed and detection reagent was added for flow cytometry analysis. The geometric mean of the APC fluorescence intensity of single cells was calculated.

In experiment [9] the target is T7, human IL-4R on transfected HEK293T cells (human, UniProt P24394 26-825).
T7 construct: whole, on cells; also called human IL-4R-expressing HEK293T cells; not shown: V5 Tag fused to the N-terminus of the expression construct
The experiment is described as follows: flow cytometry, transfected HEK293T cells.
Description: as §4, §5

Experiment [10] addresses T5, human IL-4R on cells (HEK-Blue …). The experiment is described as follows: cell-based or functional assay. The source holds these as a separate data set.
A further experiment deals with T8, human IL-31-His (human, UniProt Q6EBC2 24-164).
T8 construct: captured via an anti-His tag antibody; also called human IL-31 (scFv SPR); not shown: His tag
T8 sequence (looked up): T2 sequence (looked up)
The experiment is described as follows: SPR, IL-31-His captured, scFv analyte (30 and 10 nM). As for the experimental part: Affinity of the two humanized scFvs to human and cynomolgus IL-31 was determined by SPR analysis on a T200 device (Biacore, GE Healthcare). Cynomolgus IL-31 was manufactured on demand by Sino Biological since it was not available commercially. Human and cynomolgus IL-31-His was captured via an anti-His tag antibody coupled to a carboxylmethylated dextran surface and the scFvs were injected as analyte. After each analyte injection cycle the sensor chip was regenerated and new antigen was captured. The scFvs were measured using a dose response multi-cycle kinetic assay in a high-throughput mode with two concentrations (30 and 10 nM) diluted in running buffer. Obtained sensorgrams were fitted using a 1:1 binding model.
Affinity of PRO1643 and of the optimized anti-IL-31 scFvs to human IL-31 was determined by SPR analysis on a T200 device (Biacore, GE Healthcare), as described above in section 2.2.2. The scFvs were measured using a dose response multi-cycle kinetic assay in a high-throughput mode with two concentrations (30 and 10 nM) diluted in running buffer. Obtained sensorgrams were fitted using a 1:1 binding model.

Substitutions are numbered along the chain they refer to. In names and notes the source's numbering stands.

T4 sequence (A0A2K5V556 entry or part of it limits assumed): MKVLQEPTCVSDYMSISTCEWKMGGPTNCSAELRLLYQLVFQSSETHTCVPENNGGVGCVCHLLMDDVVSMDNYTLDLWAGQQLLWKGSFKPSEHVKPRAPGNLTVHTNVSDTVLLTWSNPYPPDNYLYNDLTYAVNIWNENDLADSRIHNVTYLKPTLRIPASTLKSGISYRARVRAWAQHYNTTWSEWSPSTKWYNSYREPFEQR

B1: PRO2206 (bispecific antibody, human IgG4 S228P, kappa)
light: DIQMTQSPSSLSARVGDRVTITCQASEDIESYLAWYQQKPGKAPKLLIYRASTLAYGVPSRFSGSGSGRDFTLTISSLQPEDFATYYCLGSSYSTGSNIFGQGTKVEIKRTVAAPSVFIFPPSDEQLKSGTASVVCLLNNFYPREAKVQWKVDNALQSGNSQESVTEQDSKDSTYSLSSTLTLSKADYEKHKVYACEVTHQGLSSPVTKSFNRGECGGGGSGGGGSAFQLTQSPSSLSASVGDRVTITCQASQSIDSWLAWYQQKPGKPPKLLIYQASKLASGVPSRFSGSGSGTDYTLTISSLQPEDFATYYCQTYYGGGHIGWGFGTGTKVTVLGGGGGSGGGGSGGGGSGGGGSQSQLVESGGGRVQPGGSLRLSCAASGFSFSANYWICWVRQAPGKGLEWIVCIYIGSRADTYYAPWAKGRFTISKDNSKNTVYLQMNSLRAEDTATYFCARFSSGIYDLDRFFLWGQGTQVTVSS
heavy: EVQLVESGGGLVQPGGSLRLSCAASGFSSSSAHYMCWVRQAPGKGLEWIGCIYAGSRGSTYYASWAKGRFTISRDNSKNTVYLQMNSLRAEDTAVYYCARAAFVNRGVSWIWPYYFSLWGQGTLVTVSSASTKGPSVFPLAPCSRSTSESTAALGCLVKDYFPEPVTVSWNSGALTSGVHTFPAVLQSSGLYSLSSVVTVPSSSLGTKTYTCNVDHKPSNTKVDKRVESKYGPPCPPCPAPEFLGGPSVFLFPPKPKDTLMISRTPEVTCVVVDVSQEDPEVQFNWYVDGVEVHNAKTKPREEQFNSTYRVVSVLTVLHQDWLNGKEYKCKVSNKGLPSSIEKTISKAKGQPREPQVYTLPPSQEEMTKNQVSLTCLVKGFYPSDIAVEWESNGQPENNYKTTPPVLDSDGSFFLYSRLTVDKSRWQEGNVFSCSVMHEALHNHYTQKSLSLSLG
notes: IgG4 (S228P) Morrison-L, anti-IL-31 scFv on the C-terminus of the light chain; also called Morrison-L; MorrL
Take B1: the Kd in [1] was determined as 0.169 nM; in experiment [2], 0.107 nM; in experiment [3] it was 0.0477 nM; in experiment [4], 0.209 nM. For the same molecule, the koff was less than 1e-05 s⁻¹ in experiment [1], 2.36e-05 s⁻¹ in [2], 1.95e-05 s⁻¹ in experiment [3] and 2.42e-05 s⁻¹ in experiment [4]. Further, the kon in experiment [1] stood at 59300 M⁻¹ s⁻¹; in experiment [2] it was 220000 M⁻¹ s⁻¹; in experiment [3], 409000 M⁻¹ s⁻¹; in experiment [4], 116000 M⁻¹ s⁻¹. Besides, the “IC50 (single analysis), human IL-31-induced signaling, IL-31RA/OSMR dimerization assay” value in [5] was 0.23 nM. The “IC50, IL-4-induced CD23 expression, memory B cells” value in experiment [6] worked out at 4.34 nM. Also, the “IC50, IL-4-induced CD23 expression, monocytes (blood donor 2)” value in [6] came out at 0.111 nM. The “IC50, IL-4-induced CD23 expression, naive B cells” value in experiment [6] is 1.48 nM. In addition, the “IC50 (single analysis), human IL-4-induced signaling, stat-6 reporter gene assay” value in [7] came to 0.0118 nM. Also, the EC50 in experiment [8] came to 0.9 nM; in experiment [9], 0.83 nM. Further, the “IC50 (single analysis), human IL-13-induced signaling, stat-6 reporter gene assay” value in [10] was 0.0295 nM.

B2: PRO2207 (bispecific antibody, human IgG4 S228P, kappa)
light: B1 light with R14S, R69T
heavy: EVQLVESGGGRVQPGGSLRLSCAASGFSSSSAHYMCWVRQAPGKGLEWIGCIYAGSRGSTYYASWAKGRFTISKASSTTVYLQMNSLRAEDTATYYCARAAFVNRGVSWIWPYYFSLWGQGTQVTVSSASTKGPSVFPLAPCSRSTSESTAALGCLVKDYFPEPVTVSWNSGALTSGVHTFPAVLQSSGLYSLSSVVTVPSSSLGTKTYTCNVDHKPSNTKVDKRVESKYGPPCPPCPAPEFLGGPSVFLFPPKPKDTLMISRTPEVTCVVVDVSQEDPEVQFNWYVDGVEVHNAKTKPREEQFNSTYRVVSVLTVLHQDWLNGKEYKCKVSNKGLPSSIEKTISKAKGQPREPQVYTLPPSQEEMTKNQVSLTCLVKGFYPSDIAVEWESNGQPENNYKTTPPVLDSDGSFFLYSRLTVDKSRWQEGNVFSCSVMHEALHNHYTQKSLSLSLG
notes: IgG4 (S228P) Morrison-L; also called Morrison-L; MorrL
For B2, in experiment [1], the Kd worked out at 0.164 nM, the koff was less than 1e-05 s⁻¹ and the association rate constant (kon) worked out at 60900 M⁻¹ s⁻¹. Besides, in [2], the Kd amounted to 0.152 nM, the koff amounted to 2.47e-05 s⁻¹ and the kon came out at 163000 M⁻¹ s⁻¹. Moreover, in experiment [3], the Kd was 0.189 nM, the koff was 4.61e-05 s⁻¹ and the kon was found to be 244000 M⁻¹ s⁻¹. Also, in experiment [4], the Kd worked out at 0.011 nM, the koff was 2.77e-05 s⁻¹ and the kon amounted to 2.53e+06 M⁻¹ s⁻¹. For the same molecule, in experiment [5], the “IC50 (single analysis), human IL-31-induced signaling, IL-31RA/OSMR dimerization assay” value stood at 0.215 nM. For the same molecule, in experiment [6], the “IC50, IL-4-induced CD23 expression, memory B cells” value stood at 1.58 nM; the “IC50, IL-4-induced CD23 expression, monocytes (blood donor 3)” value is roughly 0.0545 nM; the “IC50, IL-4-induced CD23 expression, naive B cells” value stood at 1.04 nM. Moreover, the “IC50 (single analysis), human IL-4-induced signaling, stat-6 reporter gene assay” value in experiment [7] stood at 0.0094 nM. Also, in [8], the EC50 came to 0.65 nM. In addition, in experiment [9], the EC50 is 0.6 nM. For the same molecule, in [10], the “IC50 (single analysis), human IL-13-induced signaling, stat-6 reporter gene assay” value came to 0.0126 nM.

B3: PRO1900 (scFv, V domains shown)
VH: QSQLVESGGGRVQPGGSLRLSCAASGFSFSANYWICWVRQAPGKGLEWIVCIYIGSRADTYYAPWAKGRFTISKDNSKNTVYLQMNSLRAEDTATYFCARFSSGIYDLDRFFLWGQGTQVTVSS
V domain: AFQLTQSPSSLSASVGDRVTITCQASQSIDSWLAWYQQKPGKPPKLLIYQASKLASGVPSRFSGSGSGTDYTLTISSLQPEDFATYYCQTYYGGGHIGWGFGTGTKVTV
notes: anti-IL-31 scFv; VL entry ends with LCDR3 (no FR4); also called 50-09-D07-sc04
With B3, in the experiment with human IL-31-His, the affinity, expressed as Kd, was 0.907 nM; the koff worked out at 0.000599 s⁻¹; the kon amounted to 661000 M⁻¹ s⁻¹.

B4: PRO1903 (scFv, V domains shown)
VH: B3 VH with R11L, T95V, Q119L
V domain: B3 V domain with D30E
notes: anti-IL-31 scFv (VL D32E against sc03); Printed VL entry has no FR4; also called 50-09-D07-sc07
In the experiment with human IL-31-His, B4 yielded a Kd of 1.22 nM, a koff of 0.000638 s⁻¹ and a kon of 524000 M⁻¹ s⁻¹.
